Here are results for 3 molecules from patent publication US20100239588A1 (SHANGHAI NATIONAL ENGINEERING RESEARCH CENTER OF ANTIBODY …, published 2010).

Assay [1] has as its target T1, human OPN protein (human, UniProt P10451 17-314, limits assumed).
T1 construct: also called hOPN; human osteopontin
As to the kind of experiment: western blot. For orientation: A western blot detects proteins with antibodies after separation by electrophoresis.

In the next assay the target is T2, KLH-5F12 (also: coupled to KLH (site and chemistry not given here)).
T2 construct: Synthetic 5F12 peptide as a KLH conjugate, spotted in the dot blot; also called short peptide 5F12 coupled to KLH
T2 peptide: DVYWLMPDPPTS
Kind of assay: dot blot, 10 ng dots of KLH peptide. Here is the method:
Dot-blot assay was as follows: three dots of 3×10 ng KLH-4B5 (irrelevant control) and KLH-5F12 respectively, were pointed. Each short peptide obtained in experiment V-4 was used to hybrid with three different antibodies. After being blocked and washed, the membrane was reacted with primary antibody at room temperature for 1 hour. Then, the membrane was washed again, and reacted with HRP-labeled anti-mouse secondary antibody at room temperature for 1 hour. After being washed, the membrane was pressed and exposed.

In the next assay the target is T3, phage clone 5F12.
T3 construct: not shown: phage coat protein carrying the 12-mer (NEB Ph.D.-12 library)
T3 peptide: DVYWLMPDPPTS
Kind of assay: phage clone panned on an antibody-coated plate, eluted titer.

A further assay concerns the target T4, phage clone 5D2.
T4 construct: The sentence also calls it a 'synthetic short peptide'; not shown: phage coat protein carrying the 12-mer (NEB Ph.D.-12 library)
T4 peptide: GTSTEVWLAPDP
The assay is described as above.

In assay [2] the target is T1, human OPN protein. Kind of assay: western blot, 5 ug hOPN per lane. Here is the method:
SDS-PAGE (10%) electrophoresis was carried out (5 ug hOPN/lane). hOPN was transferred to nitrocellulose membrane by 360 mA constant current for 1 hour.

Ends that are not written are not given here.

T1 sequence (P10451 17-314 limits assumed): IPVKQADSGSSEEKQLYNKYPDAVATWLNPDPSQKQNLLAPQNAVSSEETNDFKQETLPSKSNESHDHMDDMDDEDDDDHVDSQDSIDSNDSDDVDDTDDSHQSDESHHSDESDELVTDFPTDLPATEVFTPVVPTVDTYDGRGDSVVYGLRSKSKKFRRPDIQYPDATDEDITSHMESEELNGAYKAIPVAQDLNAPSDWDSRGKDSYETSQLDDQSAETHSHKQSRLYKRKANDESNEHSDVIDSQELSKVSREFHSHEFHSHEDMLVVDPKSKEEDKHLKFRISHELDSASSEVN

B1: mouse anti-human OPN monoclonal antibody 23C3 (antibody, V domains shown)
VH: EVQLVESGGGLVQPKGSLKISCAASGFTFNIYAMNWVRQAPGKGLEWVARIRSQSNNYTTYYADSVKDRFTISRDDSQSMLYLQMNNLKTEDTAMYYCVRQMGDYWGQGTTLTVSS
VL: YIQMTQSPASLSVSVGETVTITCRASENIYSFLAWYQQKQGKSPQLLVYAATNLADGVPSRFSGSGSGTQFSLKINSLQSEDFGTYYCQHFWGTPFTFGSGTKLEIKR
notes: also called 23C3 mAb; 23C3 monoclonal antibody
For B1, the binding result in the assay with human OPN protein [1], with KLH-5F12, with phage clone 5F12 and in the assay with phage clone 5D2 was “binds” in each case.

B2: anti-OPN chimeric antibody c23C3 (antibody, human IgG1, kappa, V domains shown)
VH: EVQLVESGGGLVQPKGSLKISCAASGFTFNIYAMNWVRQAPGKGLEWVARIRSQSNNYTTYYADSVKDRFTISRDDSQSMLYLQMNNLKTEDTAMYYCVRQMGDYWGQGTTLTVSS
VL: YIQMTQSPASLSVSVGETVTITCRASENIYSFLAWYQQKQGKSPQLLVYAATNLADGVPSRFSGSGSGTQFSLKINSLQSEDFGTYYCQHFWGTPFTFGSGTKLEIKR
notes: 23C3 VH and VL joined by overlap PCR to the cloned human CH (pGEM-T/CH) and CL (pGEM-T/CL); also called C23C3 chimeric antibody; chimeric monoclonal antibody c23C3
Regarding B2, the binding result with human OPN protein [2] was “binds”.

B3: anti-OPN humanized antibody h23C3 (h23C3Hb/h23C3Lb) (antibody, human IgG1, kappa, V domains shown)
VH: EVQLVESGGGLVQPGGSLRLSCAASGFTFNIYAMNWVRQAPGKGLEWVARIRSQSNNYTTYYADSVKDRFTISRDDSKNSLYLQMNSLKTEDTAVYYCVRQMGDYWGQGTLVTVSS
VL: YIQMTQSPSSLSASVGDRVTITCRASENIYSFLAWYQQKPGKAPQLLVYAATNLADGVPSRFSGSGSGTQFTLTISSLQPEDFATYYCQHFWGTPFTFGQGTKLEIKR
notes: Humanized variable regions that retain seven murine framework residues, joined to the human CH and CL by the same method as for h23C3Ha/h23C3La; The signal peptide is left out; also called h23C3VHb/h23C3VLb
Take B3: in the assay with human OPN protein [2], the binding result is “binds”.
